Six variants from IntAct's records for PubMed 22609948 can be followed below.

First the molecules themselves.
B1: Segment polarity protein dishevelled homolog DVL-2 (Mus musculus), Q60838 (parent)
chain: MAGSSAGGGGVGETKVIYHLDEEETPYLVKIPVPAERITLGDFKSVLQRPAGAKYFFKSMDQDFGVVKEEISDDNARLPCFNGRVVSWLVSSDTPQPEVAPPAHESRTELVPPPPPLPPLPPERTSGIGDSRPPSFHPNVSSSHENLEPETETESVVSLRRDRPRRRDSSEHGAGGHRPGGPSRLERHLAGYESSSTLMTSELESTSLGDSDEDDTMSRFSSSTEQSSASRLLKRHRRRRKQRPPRMERTSSFSSVTDSTMSLNIITVTLNMEKYNFLGISIVGQSNERGDGGIYIGSIMKGGAVAADGRIEPGDMLLQVNDMNFENMSNDDAVRVLRDIVHKPGPIVLTVAKCWDPSPQAYFTLPRNEPIQPIDPAAWVSHSAALTGAFPAYPGSSSMSTITSGSSLPDGCEGRGLSVHMDMASVTKAMAAPESGLEVRDRMWLKITIPNAFLGSDVVDWLYHHVEGFPERREARKYASGLLKAGLIRHTVNKITFSEQCYYVFGDLSGGCESYLVNLSLNDNDGSSGASDQDTLAPLPGATPWPLLPTFSYQYPAPHPYSPQPPPYHELSSYTYGGGSASSQHSEGSRSSGSTRSDGGAGRTGRPEERAPESKSGSGSESELSSRGGSLRRGGEPGGTGDGGPPPSRGSTGAPPNLRALPGLHPYGAPSGMALPYNPMMVVMMPPPPPPVSTAVQPPGAPPVRDLGSVPPELTASRQSFHMAMGNPSEFFVDVM

The variants in one experiment derive from B1. Particulars: with plk1_human PLK1, P53350.
plk1_human PLK1, P53350, sequence (P53350 whole entry): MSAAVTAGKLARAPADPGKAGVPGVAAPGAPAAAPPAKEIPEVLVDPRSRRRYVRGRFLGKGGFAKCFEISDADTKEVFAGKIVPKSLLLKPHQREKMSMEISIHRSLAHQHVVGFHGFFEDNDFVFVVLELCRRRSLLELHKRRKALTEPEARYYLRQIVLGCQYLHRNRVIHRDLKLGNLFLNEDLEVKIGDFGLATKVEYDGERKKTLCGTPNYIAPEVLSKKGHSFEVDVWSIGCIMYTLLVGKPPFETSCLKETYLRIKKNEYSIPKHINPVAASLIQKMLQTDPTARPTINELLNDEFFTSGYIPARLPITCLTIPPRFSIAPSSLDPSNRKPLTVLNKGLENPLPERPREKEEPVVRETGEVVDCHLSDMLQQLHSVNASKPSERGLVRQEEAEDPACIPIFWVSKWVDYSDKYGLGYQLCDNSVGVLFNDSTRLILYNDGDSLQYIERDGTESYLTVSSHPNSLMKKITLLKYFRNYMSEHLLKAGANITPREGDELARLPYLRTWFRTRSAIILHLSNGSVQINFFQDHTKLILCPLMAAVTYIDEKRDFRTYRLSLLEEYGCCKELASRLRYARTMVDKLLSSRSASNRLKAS
Regarding S398A, the “effect of a mutation on the interaction” value is “decreasing interaction”.

The variants in another experiment derive from B1. Particulars: with plk1_human PLK1, P53350. This is another data set of the same source.
In the case of S143D, the “effect of a mutation on the interaction” value is reported as “disrupting interaction”.

A further experiment covers variants of B1. Particulars: with plk1_human PLK1, P53350. This is another data set of the same source.
In the case of S143A, the “effect of a mutation on the interaction” value was “disrupting interaction”.

In another experiment the parent is B1. Particulars: with plk1_human PLK1, P53350. This is another data set of the same source.
With T224E, the “effect of a mutation on the interaction” value is on record as “decreasing interaction”.

A further experiment covers variants of B1. Particulars: with plk1_human PLK1, P53350. The source holds these as a separate data set.
As to T224D, the “effect of a mutation on the interaction” value was “disrupting interaction”.

The variants in a further experiment derive from B1. Particulars: with plk1_human PLK1, P53350. The source holds these as a separate data set.
T224A: the “effect of a mutation on the interaction” value is reported as “decreasing interaction”.
